Tests used:
[1] = molecular target: FimH^wt (FimH adhesin of E. coli K12) (Escherichia coli K12) (UniProt P08191); assay: ELISA, mAb824 on FimH^wt fimbriae, without αmm
[2] = molecular target: FimH^wt (FimH adhesin of E. coli K12) (Escherichia coli K12) (UniProt P08191); assay: ELISA, mAb824 on FimH^wt fimbriae, with 1% αmm
[3] = molecular target: FimH^wt (FimH adhesin of E. coli K12) (Escherichia coli K12) (UniProt P08191); assay: cell-based or functional assay
[4] = molecular target: FimH^FocH (Escherichia coli K12; Escherichia coli) (UniProt P08191); assay: cell-based or functional assay
[5] = molecular target: FimH^FocH (Escherichia coli K12; Escherichia coli) (UniProt P08191); assay: ELISA, mAb824 on FimH^FocH fimbriae, without αmm
[6] = molecular target: FimH^FocH (Escherichia coli K12; Escherichia coli) (UniProt P08191); assay: ELISA, mAb824 on FimH^FocH fimbriae, with 1% αmm
[7] = molecular target: horseradish peroxidase (HRP) (horseradish) (UniProt P00433); assay: time course of soluble HRP on fimbriae pre-treated with mAb824
yeast mannan = assay: FimH-dependent bacterial adhesion to yeast mannan (Example 7); type: cell-based; details: 1% mannose
Procedure: FimH-dependent bacterial adhesion was analyzed as described previously. Briefly, Immulon 4HBX microtiter plates (Thermo Electron Corp.) were coated with 20 μg/mL of yeast mannan and plates were quenched with 0.2% BSA in PBS. Bacterial suspensions in PBS (OD540=2) were added to each well in a volume of 100 μl and incubated for 1 h at 37° C. After extensive washing, bound bacteria were stained with 0.1% (vol/vol) crystal violet for 20 min at room temperature and were washed several times with water. Then 100 μl of 50% (vol/vol) ethanol was added to each well, and the absorbance at a wavelength of 600 nm was measured. For inhibition, bacterial binding was tested in the presence of 1% mannose.

fimbrial FimH = assay: mAb21 ELISA on fimbriae after αmm / Fab824 pre-treatment; type: binding, Escherichia coli; details: FimH^wt pre-treated with PBS only
From the text: Bound antibodies were detected with a 1:5,000 diluted HRP-conjugated goat anti-mouse Fc antibody (Sigma-Aldrich). […] Binding of the latter antibody was detected using 1:5,000 diluted HRP-conjugated streptavidin (Invitrogen).

asialofetuin = molecular target: T1, asialofetuin (UniProt P12763 19-359, oligosaccharides with terminal galactose (beta1-3)); assay: adhesion of bacteria expressing the FmlH variant to surface-coated asialofetuin, crystal violet, absorbance 600 nm
T1 construct: also called asialated fetuin
T1 sequence (looked up): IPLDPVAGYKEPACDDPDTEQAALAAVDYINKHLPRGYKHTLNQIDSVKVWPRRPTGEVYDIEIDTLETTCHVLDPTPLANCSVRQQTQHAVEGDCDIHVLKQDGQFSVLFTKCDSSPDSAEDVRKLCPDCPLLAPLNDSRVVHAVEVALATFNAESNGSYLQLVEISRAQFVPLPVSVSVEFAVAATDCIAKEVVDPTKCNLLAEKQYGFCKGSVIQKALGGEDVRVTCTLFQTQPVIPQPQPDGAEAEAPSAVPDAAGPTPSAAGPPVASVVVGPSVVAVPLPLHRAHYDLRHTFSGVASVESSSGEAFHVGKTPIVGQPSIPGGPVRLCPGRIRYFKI
Procedure: Briefly, Immulon 4HBX microtiter plates (Thermo Electron Corp.) were coated with 20 μg/mL of asialofetuin (Sigma-Aldrich) and plates were quenched with 0.2% BSA in PBS. Bacterial suspensions in PBS (OD540=2) were added to each well in a volume of 100 μl and plates were spun for 2 min at 750×g. After extensive washing, bound bacteria were stained with 0.1% (vol/vol) crystal violet for 20 min at room temperature and were washed several times with water. Then 100 μl of 50% (vol/vol) ethanol was added to each well, and the absorbance at a wavelength of 600 nm was measured. For inhibition, bacterial binding was tested in the presence of 1% galactose (Sigma).
Briefly, Immulon 4HBX microtiter plates (ThermoFisher Scientific) were coated with 20 μg/mL of asialofetuin (Sigma-Aldrich) and plates were quenched with 0.2% BSA in PBS. Bacterial suspensions in PBS (OD540=2) were added to each well in a volume of 100 μl and plates were spun for 2 min at 750×g. After extensive washing, bound bacteria were stained with 0.1% (vol/vol) crystal violet for 20 min at room temperature and were washed several times with water. Then 100 μl of 50% (vol/vol) ethanol was added to each well, and the absorbance at a wavelength of 600 nm was measured. For inhibition, bacterial binding was tested in the presence of 1% galactose (Sigma).

Chain of horseradish peroxidase (HRP) (horseradish) (P00433 31-338): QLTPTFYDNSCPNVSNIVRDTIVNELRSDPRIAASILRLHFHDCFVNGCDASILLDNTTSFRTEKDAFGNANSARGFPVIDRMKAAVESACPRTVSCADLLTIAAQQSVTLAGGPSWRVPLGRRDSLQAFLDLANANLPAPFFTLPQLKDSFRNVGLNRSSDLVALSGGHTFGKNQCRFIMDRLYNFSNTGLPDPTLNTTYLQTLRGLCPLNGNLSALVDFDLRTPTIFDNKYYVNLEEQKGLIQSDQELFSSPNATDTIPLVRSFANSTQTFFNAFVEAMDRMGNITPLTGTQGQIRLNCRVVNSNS

Which EC50 (read off the curve) [1] does the source give for mAb824 (antibody) here?
Its EC50 (read off the curve) is 20 pM.

What about the EC50 (read off the curve) [2] of the same molecule?
Its EC50 (read off the curve) is 20 pM.

What about the RBC agglutination: time (in min) upon which noticeable aggregation of RBC was observed [3] of the same molecule?
The RBC agglutination: time (in min) upon which noticeable aggregation of RBC was observed was greater than 60 min.

And the RBC agglutination: time (in min) upon which noticeable aggregation of RBC was observed [4]?
Its RBC agglutination: time (in min) upon which noticeable aggregation of RBC was observed is greater than 60 min.

And the EC50 (read off the curve) [5]?
Its EC50 (read off the curve) is 20 pM.

And the EC50 (read off the curve) [6]?
The EC50 (read off the curve) was 20 pM.

How did the fold decrease in the rate of binding with mAb824 against untreated [7] turn out when FimH^FocH (from UniProt P08191 22-300) was run?
Its fold decrease in the rate of binding with mAb824 against untreated is greater than 10 fold.

α-methyl-D-mannopyranoside [αmm] was tested. Which “inhibition of bacterial adhesion to yeast mannan-coated surface” value (yeast mannan) did it give?
Its value is greater than 95%.

And the “αmm concentration at plateau of mAb21 binding” value (fimbrial FimH)?
Its value is 0.1-1.0 % αmm.

B1: FmIH^wt (full-length wild-type FmlH adhesin) (other, Escherichia coli CFT073)
chain: FSCNVDGGSSIGAGTTSVYVNLDPVIQPGQNLVVDLSQHISCWNDYGGWYDTDHINLVQGSAFAGSLQSYKGSLYWNNVTYPFPLTTNTNVLDIGDKTPMPLPLKLYITPVGAAGGVVIKAGEVIARIHMYKIATLGSGNPRNFTWNIISNNSVVMPTGGCTVDSRNVTVDLPDFPGSAEIPLGVYCSSEQKLSFYLSGATTDSSRQVFANTAPDATKASGVGVTLMRNGKILATGENVSLGTVNKSKVPLGLSATYGQTGNKVSAGTVQSVIGVTFIYE
notes: domain: pilin domain; Expressed on bacteria in the type 1 fimbrial background
Does B1 bind (asialofetuin)?
Result: no binding

Source: patent publication US20240165214A1, “COMPOSITIONS AND METHODS FOR STABILIZATION OF ALLOSTERIC PROTEINS” (priority 2021, published 2024)
